Molecular target: T1, alpha-fetoprotein (AFP) (UniProt P02771 19-609)
T1 sequence: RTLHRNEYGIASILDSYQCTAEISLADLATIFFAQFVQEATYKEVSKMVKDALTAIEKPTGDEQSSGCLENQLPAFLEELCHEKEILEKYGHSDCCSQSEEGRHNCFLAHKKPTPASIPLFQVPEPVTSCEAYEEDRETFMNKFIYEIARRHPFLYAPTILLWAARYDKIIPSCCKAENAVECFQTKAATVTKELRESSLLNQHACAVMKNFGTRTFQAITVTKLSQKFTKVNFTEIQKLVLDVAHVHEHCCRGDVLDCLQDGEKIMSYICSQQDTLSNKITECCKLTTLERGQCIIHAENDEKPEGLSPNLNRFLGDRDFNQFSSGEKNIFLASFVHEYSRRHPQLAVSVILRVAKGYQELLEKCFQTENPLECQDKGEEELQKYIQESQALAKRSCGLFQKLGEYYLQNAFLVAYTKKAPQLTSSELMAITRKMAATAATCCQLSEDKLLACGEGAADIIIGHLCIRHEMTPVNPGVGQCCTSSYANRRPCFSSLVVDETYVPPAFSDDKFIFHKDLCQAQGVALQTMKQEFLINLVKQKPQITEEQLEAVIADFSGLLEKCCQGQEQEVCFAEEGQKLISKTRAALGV
Assay: electrochemical aptasensor (CV/SWV); aptamer immobilized on PtNPs/GO-COOH/SPGE; 3 mM hydroquinone probe; LOD 1.22 ng/mL, linear 3-30 ng/mL (not a Kd); 10 mM PBS pH 7.4, 3 mM hydroquinone for readout; BSA-blocked electrode (0.25% w/v); AFP incubation 45 min at room temperature
Conditions: protein: commercial

B1: AFP aptamer (ssDNA)
DNA: GTGACGCTCCTAACGCTGACTCAGGTGCAGTTCTCGACTCGGTCTTGATGTGGGTCCTGTCCGTCCGAACCAATC
modifications: 5'-NH2
B1: binds.

— paper PMC8263621, “A simple label-free electrochemical sensor for sensitive detection of alpha-fetoprotein based on specific aptamer immobilized platinum nanoparticles/carboxylated-graphene oxide”
